The source of these data is patent publication US20050064411.

One series addresses T1, FLAG-AICD, P05067.
T1 chain: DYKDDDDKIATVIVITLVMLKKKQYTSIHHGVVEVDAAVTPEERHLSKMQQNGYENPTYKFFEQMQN

B1: NEDL-1 protein (protein)
chain: MASPSRNSQSRRRCKEPLRYSYNPDQFHNMDLRGGPHDGVTIPRSTSDTDLVTSDSRSTLMVSSSYYSIGHSQDLVIHWDIKEEVDAGDWIGMYLIDEVLSENFLDYKNRGVNGSHRGQIIWKIDASSYFVEPETKICFKYYHGVSGALRATTPSVTVKNSAAPIFKSIGADETVQGQGSRRLISFSLSDFQAMGLKKGMFFNPDPYLKISIQPGKHSIFPALPHHGQERRSKIIGNTVNPIWQAEQFSFVSLPTDVLEIEVKDKFAKSRPIIKRFLGKLSMPVQRLLERHAIGDRVVSYTLGRRLPTDHVSGQLQFRFEITSSIHPDDEEISLSTEPESAQIQDSPMNNLMESGSGEPRSEAPESSESWKPEQLGEGSVPDRPGNQSIELSRPAEEAAVITEAGDQGMVSVGPEGAGELLAQVQKDIQPAPSAEELAEQLDLGEEASALLLEDGEAPASTKEEPLEEEATTQSRAGREEEEKEQEEEGDVSTLEQGEGRLQLRASVKRKSRPCSLPVSELETVIASACGDPETPRTHYIRIHTLLHSMPSAQGGSAAEEEDGAEEESTLKDSSEKDGLSEVDTVAADPSALEEDREEPEGATPGTAHPGHSGGHFPSLANGAAQDGDTHPSTGSESDSSPRQGGDHSCEGCDASCCSPSCYSSSCYSTSCYSSSCYSASCYSPSCYNGNRFASHTRFSSVDSAKISESTVFSSQDDEEEENSAFESVPDSMQSPELDPESTNGAGPWQDELAAPSGHVERSPEGLESPVAGPSNRREGECPILHNSQPVSQLPSLRPEHHHYPTIDEPLPPNWEARIDSHGRVFYVDHVNRTTTWQRPTAAATPDGMRRSGSIQQMEQLNRRYQNIQRTIATERSEEDSGSQSCEQAPAGGGGGGGSDSEAESSQSSLDLRREGSLSPVNSQKITLLLQSPAVKFITNPEFFTVLHANYSAYRVFTSSTCLKHMILKVRRDARNFERYQHNRDLVNFINMFADTRLELPRGWEIKTDQQGKSFFVDHNSRATTFIDPRIPLQNGRLPNHLTHRQHLQRLRSYSAGEASEVSRNRGASLLARPGHSLVAAIRSQHQHESLPLAYNDKIVAFLRQPNIFEMLQERQPSLARNHTLREKIHYIRTEGNHGLEKLSCDADLVILLSLFEEEIMSYVPLQAAFHPGYSFSPRCSPCSSPQNSPGLQRASARAPSPYRRDFEAKLRNFYRKLEAKGFGQGPGKIKLIIRRDHLLEGTFNQVMAYSRKELQRNKLYVTFVGEEGLDYSGPSREFFFLLSQELFNPYYGLFEYSANDTYTVQISPMSAFVENHLEWFRFSGRILGLALIHQYLLDAFFTRPFYKALLRLPCDLSDLEYLDEEFHQSLQWMKDNNITDILDLTFTVNEEVFGQVTERELKSGGANTQVTEKNKKEYIERMVKWRVERGVVQQTEALVRGFYEVVDSRLVSVFDARELELVIAGTAEIDLNDWRNNTEYRGGYHDGHLVIRWFWAAVERFNNEQRLRLLQFVTGTSSVPYEGFAALRGSNGLRRFCIEKWGKITSLPRAHTCFNRLDLPPYPSYSMLYEKLLTAVEETSTFGLE
B1: the “ubiquitination (bands increasing by about 9 kD detected with anti-ubiquitin antibody)” value in the series with FLAG-AICD, P05067 is given as “It is understood that ACID alone is subjected to ubiquitination by NEDL-1”. Also, the “ubiquitination (immunoprecipitation with FLAG, blotting with anti-ubiquitin antibody, FIG. 13)” value in the series with SOD1 mutants is listed as “the degree of ubiquitination drastically increases in the presence of NEDL-1”.
